# Reference: patent US12076374B1, “Anti-microbial and anti-inflammatory compositions and methods for treating enteric diseases in animals” (Vets Plus, Inc., priority 2019, dated 2024)
# How the values were obtained:
# Type in all cases: in vivo
# [1] = 28-d feeding trial in weaned pigs with diarrhea, fecal score and growth performance
# Experimental: Weaning can be a stressful time for performance animals that are transitioning to new food and newly encountering enteric pathogens. These factors can result in diarrhea to varying degrees. The objective of this study was to evaluate the effect of supplementing dietary ovotransferrin of the invention to pigs that had slight diarrhea within a week upon weaning. Growth performance and fecal score were measured. […] Pigs with diarrhea were housed in the nursery pens with 3 pigs per pen and allowed free access to the diet and water ad-libitum for the entire experimental period. Then, they were treated with a solution mixed with electrolytes and ovotransferrin by drenching for 3 days. Ovotransferrin was produced as described in example 1. The pigs were fed test diets containing 0, 0.5, and 1.0% ovotransferrin of the invention. Body weight were recorded at day 0 (study initiation), day 7, 14, 21, and 28 postweaning. Average daily gain (ADG), average daily feed intake (ADFI) and gain:feed (G:F) ratio were calculated weekly from day 7-28 postweaning. Corn-soybean meal-based diets were used for 28 days with 2 phases (Phase 1: day 0-14 postweaning and Phase 2: day 15-28 postweaning). Ovotransferrin was added to the diets by replacing corn starch proportionally. Fecal score was recorded daily through day 14. Body weight and feed consumption were recorded weekly for the diarrhea pigs.
# Eimeria tenella = assay: E. tenella infection (coccidiosis) in broiler chickens, growth performance and oocysts
# PEDV = PEDV newborn piglets, dose response of ovotransferrin drench with or without ORS; details: for % Survival: 100 ml drench twice daily, after 5 days
# gut microbiome = assay: Fecal 16S rRNA microbiome analysis of newly weaned piglets with diarrhea
# Excerpt: The microbiome of newly weaned piglets with diarrhea was examined when treated with components of the invention. Fecal samples of N=3 control (C) newly weaned piglets without diarrhea (D) and for N=6 newly weaned piglets that did have diarrhea were examined. 3 of these piglets with diarrhea were randomly selected and treated (T3) with 2.5 grams/piglet/day with ovotransferrin by mixing the ovotransferrin into dry feed for 5 consecutive days. Fecal samples were taken from the Diarrhea pigs, the Treated piglets and Control piglets after 5 days trial.
# Fecal samples then had DNA was extracted using the PowerSoil DNA extraction kit (QIAGEN). Extracted DNA was then sequenced where the V4 variable region of the bacterial 16S rRNA gene was amplified (Primers 515F and 806R) and libraries constructed using a dual index approach1. 16SrRNA libraries were sequenced on a MiSeq V3 instrument (Illumina), targeting 2×300 PE reads. Bioinformatics occurred by processing of amplicons that was based on protocols that rely on several open-source software (FastQC2, cutadapt3, bbmap4 and the DADA25 plugin within QIIME26) to remove adaptors and primer sequences, merge PE reads, filter out low quality reads and generate counts of unique Amplicon Sequence Variants (ASVs) or unique taxonomic groups that represent the abundance of species and/or strains in each sample. […]
# [2] = 0.5% ovotransferrin in diet, d 7-14
# [3] = 0.5% ovotransferrin in diet, d 7-28
# [4] = 0.5% ovotransferrin in diet, d 14-21
# [5] = 0.5% ovotransferrin in diet, d 21-28
# [6] = 1% ovotransferrin in diet, d 7-14
# [7] = 1% ovotransferrin in diet, d 7-28
# [8] = 1% ovotransferrin in diet, d 14-21
# [9] = 1% ovotransferrin in diet, d 21-28
molecule,measurement,setting,value
"ovotransferrin (protein, UniProt P02789 20-705, looked up) Ovotransferrin: APPKSVIRWCTISSPEEKKCNNLRDLTQQERISLTCVQKATYLDCIKAIANNEADAISLDGGQAFEAGLAPYKLKPIAAEVYEHTEGSTTSYYAVAVVKKGTEFTVNDLQGKTSCHTGLGRSAGWNIPIGTLLHRGAIEWEGIESGSVEQAVAKFFSASCVPGATIEQKLCRQCKGDPKTKCARNAPYSGYSGAFHCLKDGKGDVAFVKHTTVNENAPDQKDEYELLCLDGSRQPVDNYKTCNWARVAAHAVVARDDNKVEDIWSFLSKAQSDFGVDTKSDFHLFGPPGKKDPVLKDLLFKDSAIMLKRVPSLMDSQLYLGFEYYSAIQSMRKDQLTPSPRENRIQWCAVGKDEKSKCDRWSVVSNGDVECTVVDETKDCIIKIMKGEADAVALDGGLVYTAGVCGLVPVMAERYDDESQCSKTDERPASYFAVAVARKDSNVNWNNLKGKKSCHTAVGRTAGWVIPMGLIHNRTGTCNFDEYFSEGCAPGSPPNSRLCQLCQGSGGIPPEKCVASSHEKYFGYTGALRCLVEKGDVAFIQHSTVEENTGGKNKADWAKNLQMDDFELLCTDGRRANVMDYRECNLAEVPTHAVVVRPEKANKIRDLLERQEKRFGVNGSEKSKFMMFESQNKDLLFKDLTKCLFKVREGTTYKEFLGDKFYTVISSLKTCNPSDILQMCSFLEGK",Fecal score,"[1]; 0.5% ovotransferrin in diet, d 0-7, scale ≤1 normal to 4 liquid, severe diarrhea",1.81
same,Fecal score,"[1]; 0.5% ovotransferrin in diet, d 0-14 (Phase 1), scale ≤1 normal to 4 severe diarrhea",1.80
same,Fecal score,"[1]; 0.5% ovotransferrin in diet, d 0-28 (Overall), scale ≤1 normal to 4 severe diarrhea",1.68
same,ADFI (average daily feed intake),[1]; [2],581.17 g/day
same,ADG (average daily gain),[1]; [2],356.06 g/day
same,G:F (gain:feed ratio),[1]; [2],0.613
same,Fecal score,"[1]; 0.5% ovotransferrin in diet, d 7-14, scale ≤1 normal to 4 severe diarrhea",1.79
same,ADFI (average daily feed intake),[1]; [3],868.33 g/day
same,ADG (average daily gain),[1]; [3],540.76 g/day
same,G:F (gain:feed ratio),[1]; [3],0.623
same,Body weight,"[1]; 0.5% ovotransferrin in diet, d 7 postweaning",7.87 kg
same,Body weight,"[1]; 0.5% ovotransferrin in diet, d 14",10.37 kg
same,ADFI (average daily feed intake),[1]; [4],933.98 g/day
same,ADG (average daily gain),[1]; [4],566.02 g/day
same,G:F (gain:feed ratio),[1]; [4],0.606
same,Body weight,"[1]; 0.5% ovotransferrin in diet, d 21",14.33 kg
same,ADFI (average daily feed intake),[1]; [5],1089.83 g/day
same,ADG (average daily gain),[1]; [5],700.22 g/day
same,G:F (gain:feed ratio),[1]; [5],0.643
same,Body weight,"[1]; 0.5% ovotransferrin in diet, d 28",19.23 kg
same,Fecal score,"[1]; 1% ovotransferrin in diet, d 0-7, scale ≤1 normal to 4 severe diarrhea",1.57
same,Fecal score,"[1]; 1% ovotransferrin in diet, d 0-14 (Phase 1), scale ≤1 normal to 4 severe diarrhea",1.61
same,Fecal score,"[1]; 1% ovotransferrin in diet, d 0-28 (Overall), scale ≤1 normal to 4 severe diarrhea",1.58
same,Body weight,"[1]; 1% ovotransferrin in diet, d 7",7.61 kg
same,ADFI (average daily feed intake),[1]; [6],654.76 g/day
same,ADG (average daily gain),[1]; [6],496.75 g/day
same,G:F (gain:feed ratio),[1]; [6],0.759
same,Fecal score,"[1]; 1% ovotransferrin in diet, d 7-14, scale ≤1 normal to 4 severe diarrhea",1.64
same,ADFI (average daily feed intake),[1]; [7],1043.29 g/day
same,ADG (average daily gain),[1]; [7],645.02 g/day
same,G:F (gain:feed ratio),[1]; [7],0.618
same,Body weight,"[1]; 1% ovotransferrin in diet, d 14",11.09 kg
same,ADFI (average daily feed intake),[1]; [8],1084.42 g/day
same,ADG (average daily gain),[1]; [8],584.42 g/day
same,G:F (gain:feed ratio),[1]; [8],0.539
same,Body weight,"[1]; 1% ovotransferrin in diet, d 21",15.18 kg
same,ADFI (average daily feed intake),[1]; [9],1390.69 g/day
same,ADG (average daily gain),[1]; [9],853.90 g/day
same,G:F (gain:feed ratio),[1]; [9],0.614
same,Body weight,"[1]; 1% ovotransferrin in diet, d 28",21.16 kg
same,Weight (g) in chickens infected with E. tenella,"Eimeria tenella; 0.5% ovotransferrin in feed day 7 through 21, Day 7",110 ± 5 g
same,Weight (g) in chickens infected with E. tenella,"Eimeria tenella; 0.5% ovotransferrin in feed, Day 14 (day of infection)",283 ± 10 g
same,Weight (g) in chickens infected with E. tenella,"Eimeria tenella; 0.5% ovotransferrin in feed, Day 21",470 ± 15 g
same,Weight (g) in chickens infected with E. tenella,"Eimeria tenella; 1.0% ovotransferrin in feed, Day 7",115 ± 6 g
same,Weight (g) in chickens infected with E. tenella,"Eimeria tenella; 1.0% ovotransferrin in feed, Day 14",293 ± 14 g
same,Weight (g) in chickens infected with E. tenella,"Eimeria tenella; 1.0% ovotransferrin in feed, Day 21",529 ± 22 g
same,Weight (g) in chickens infected with E. tenella,"Eimeria tenella; 2.0% ovotransferrin in feed, Day 7",115 ± 6 g
same,Weight (g) in chickens infected with E. tenella,"Eimeria tenella; 2.0% ovotransferrin in feed, Day 14",293 ± 14 g
same,Weight (g) in chickens infected with E. tenella,"Eimeria tenella; 2.0% ovotransferrin in feed, Day 21",571 ± 15 g
same,Oocysts count in fecal sample,"Eimeria tenella; as compared with positive infected control, *p<0.01",significantly lower
same,Histopathology of cecum,"Eimeria tenella; cecum samples at end of experiment, versus positive infected control",normal structures of cecal epithelium
same,E. tenella infection,Eimeria tenella; given alone in feed,inhibited E. tenella infection
same,Feed conversion rate,"Eimeria tenella; treated groups, E. tenella infected broiler chickens",higher
same,% Survival,PEDV; 2 grams of ovotransferrin in water,40%
same,Defecations/day/group,"PEDV; 2 grams of ovotransferrin, Day 0",30 Defecations/day/group
same,Defecations/day/group,"PEDV; 2 grams of ovotransferrin, Day 1",18 Defecations/day/group
same,Defecations/day/group,"PEDV; 2 grams of ovotransferrin, Day 3",14 Defecations/day/group
same,Defecations/day/group,"PEDV; 2 grams of ovotransferrin, Day 5",12 Defecations/day/group
same,% Survival,PEDV; 5 grams of ovotransferrin in water,60%
same,Defecations/day/group,"PEDV; 5 grams of ovotransferrin, Day 0",26 Defecations/day/group
same,Defecations/day/group,"PEDV; 5 grams of ovotransferrin, Day 1",18 Defecations/day/group
same,Defecations/day/group,"PEDV; 5 grams of ovotransferrin, Day 3",15 Defecations/day/group
same,Defecations/day/group,"PEDV; 5 grams of ovotransferrin, Day 5",12 Defecations/day/group
same,"Microbiome diversity (Shannon index, Bray-Curtis PCoA)","gut microbiome; 2.5 grams/piglet/day in dry feed for 5 consecutive days, fecal samples",brought the microbiome diversity back to levels similar to the control piglets
same,"Abundance of Veilloneaceae, Entreobacteriaceae, Paraprevotellaceae and Treponema","gut microbiome; 2.5 grams/piglet/day in dry feed for 5 days, indicator species analysis",Reductions to the initial control baselines
